The values that follow come from doi:10.1101/2024.04.26.590571.

The assay addresses NB-protein (BchN-BchB α2β2 heterotetramer), electron acceptor component of Rhodobacter sphaeroides DPOR (Rhodobacter sphaeroides). Briefly: cryo-EM structure.

L-protein (BchL homodimer), electron donor component of Rhodobacter sphaeroides DPOR, sequence (Q9RFD6 whole entry): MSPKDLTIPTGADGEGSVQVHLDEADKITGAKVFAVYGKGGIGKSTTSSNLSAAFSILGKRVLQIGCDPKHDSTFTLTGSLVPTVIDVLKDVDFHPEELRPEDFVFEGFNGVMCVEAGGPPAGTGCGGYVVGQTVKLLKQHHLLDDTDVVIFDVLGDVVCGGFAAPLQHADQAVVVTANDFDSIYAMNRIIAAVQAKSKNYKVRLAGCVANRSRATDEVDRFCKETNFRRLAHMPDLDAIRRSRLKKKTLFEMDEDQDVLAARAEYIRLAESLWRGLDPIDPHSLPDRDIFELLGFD

“L-protein (BchL homodimer), electron donor component of Rhodobacter sphaeroides DPOR (from UniProt Q9RFD6 1-297) (enzyme)” registered a stoichiometry N (L-protein dimer per NB-protein tetramer) of 1 and a stoichiometry N (L-protein dimers per NB-protein tetramer) of 2.
